Here are results for one substance from patent publication US20260191929A1.

The test concerns the target mouse CD117 (stem cell factor receptor, c-Kit) on mouse bone marrow and lung cells (mouse) (UniProt P05532). The test can be described thus: cell-based or functional assay.
Sequence of UniProt P05532 (P05532 25-979): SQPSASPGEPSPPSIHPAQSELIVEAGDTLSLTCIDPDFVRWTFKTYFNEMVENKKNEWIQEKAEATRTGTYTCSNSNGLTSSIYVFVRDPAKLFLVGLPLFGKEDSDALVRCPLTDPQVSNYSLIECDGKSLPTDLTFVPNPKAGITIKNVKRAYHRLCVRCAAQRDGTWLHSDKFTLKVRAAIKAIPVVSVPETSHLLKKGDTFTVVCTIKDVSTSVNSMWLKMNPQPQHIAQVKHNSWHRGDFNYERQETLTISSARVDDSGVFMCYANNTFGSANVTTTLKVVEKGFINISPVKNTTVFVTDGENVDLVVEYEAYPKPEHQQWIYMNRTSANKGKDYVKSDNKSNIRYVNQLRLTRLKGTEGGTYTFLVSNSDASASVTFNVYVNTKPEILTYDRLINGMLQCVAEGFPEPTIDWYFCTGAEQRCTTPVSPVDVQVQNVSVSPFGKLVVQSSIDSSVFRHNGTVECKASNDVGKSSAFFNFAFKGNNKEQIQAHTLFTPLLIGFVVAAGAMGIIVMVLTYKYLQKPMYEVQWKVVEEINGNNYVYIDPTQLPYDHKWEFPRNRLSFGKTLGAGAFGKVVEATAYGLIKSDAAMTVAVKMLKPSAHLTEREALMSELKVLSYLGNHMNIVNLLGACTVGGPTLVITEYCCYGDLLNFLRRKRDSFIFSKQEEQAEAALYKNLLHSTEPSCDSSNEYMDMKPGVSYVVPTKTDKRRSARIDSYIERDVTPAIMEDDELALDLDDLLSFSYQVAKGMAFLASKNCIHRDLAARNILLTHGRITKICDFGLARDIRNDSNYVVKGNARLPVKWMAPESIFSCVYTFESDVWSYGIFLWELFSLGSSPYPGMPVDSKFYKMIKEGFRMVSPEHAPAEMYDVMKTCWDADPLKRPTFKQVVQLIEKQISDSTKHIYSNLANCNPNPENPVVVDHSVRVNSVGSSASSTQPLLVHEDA

“purified rat anti-mouse CD117 (c-kit), clone 2B8 (BioLegend 93235), conjugated to LNP-mRNA (antibody)” showed a gene editing (tdTomato) frequency in cKit+ lung cells after in vivo CD117/LNP-Cre of 90%; a luciferase activity normalized to the frequency of antigen positive cells, Lin- cells, relative to CD45/LNP of 700 fold; a luciferase activity normalized to the frequency of antigen positive cells, whole bone marrow (WBM), relative to CD45/LNP of 500 fold.
